Laboratory results: patent US20150344570A1 (published 2015)

Molecular target: T1, FcγRIIb extracellular domain with C-terminal His tag (human, UniProt P31994 43-217)
T1 construct: extracellular domain; also called FcgRIIb; 2b
T1 sequence (looked up): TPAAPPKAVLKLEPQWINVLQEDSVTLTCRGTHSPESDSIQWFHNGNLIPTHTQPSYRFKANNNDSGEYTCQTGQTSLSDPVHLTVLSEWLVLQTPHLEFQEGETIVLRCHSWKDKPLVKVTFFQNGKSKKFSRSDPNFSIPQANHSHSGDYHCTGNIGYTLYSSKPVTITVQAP
Experiment: SPR (Biacore), relative binding
Description: Analysis of interaction between objective antibody and the FcγR was carried out using Biacore T100 (GE Healthcare). HBS-EP+ (GE Healthcare) was used as the running buffer, and the measurement temperature was set to 25° C. Chips produced by immobilizing the antigen peptide by the amine coupling method to a Series S Sencor Chip CM5 (GE Healthcare), or alternatively, chips produced by allowing preliminarily biotinylated antigen peptides to interact with and immobilize onto a Series S Sensor Chip SA (certified) (GE Healthcare) were used. Antibodies of interest were captured onto an antigen peptide-immobilized chip, and allowed to interact to each FcγR diluted with running buffer. To regenerate and repeatedly use the chip, the antibodies captured on the chip were washed off by reacting 10 mM glycine-HCl, pH 1.5.

B1: GpH7-B3 variant N325_03V/GpL16-k0 (antibody, human IgG1, kappa)
heavy: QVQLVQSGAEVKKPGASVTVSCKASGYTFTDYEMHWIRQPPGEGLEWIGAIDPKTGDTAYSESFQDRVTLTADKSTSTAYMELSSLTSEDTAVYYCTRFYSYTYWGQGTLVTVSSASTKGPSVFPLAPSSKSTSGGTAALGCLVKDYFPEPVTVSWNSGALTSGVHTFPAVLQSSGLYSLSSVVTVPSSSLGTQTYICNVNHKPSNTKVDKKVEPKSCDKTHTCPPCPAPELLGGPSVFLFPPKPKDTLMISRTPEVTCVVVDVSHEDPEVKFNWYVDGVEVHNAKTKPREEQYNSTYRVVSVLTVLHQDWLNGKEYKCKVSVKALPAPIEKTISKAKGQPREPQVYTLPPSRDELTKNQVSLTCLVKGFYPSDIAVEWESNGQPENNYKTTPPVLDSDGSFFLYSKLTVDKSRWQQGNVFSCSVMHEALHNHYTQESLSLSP
light: DIVMTQSPLSLPVTPGEPASISCQASESLVHSNRNTYLHWYLQKPGQSPQLLIYKVSNRFSGVPDRFSGSGSGTDFTLKISRVEAEDVGVYYCSQNTHVPPTFGQGTKVEIERTVAAPSVFIFPPSDEQLKSGTASVVCLLNNFYPREAKVQWKVDNALQSGNSQESVTEQDSKDSTYSLSSTLTLSKADYEKHKVYACEVTHQGLSSPVTKSFNRGEC
notes: also called Ho Ab N325_03V
- Ho/Con_2b: 31.8 % of HoCon Ab GpH7-B3/GpL16-k0

B2: GpH7-B3 variant N325_06M/GpL16-k0 (antibody, human IgG1, kappa)
heavy: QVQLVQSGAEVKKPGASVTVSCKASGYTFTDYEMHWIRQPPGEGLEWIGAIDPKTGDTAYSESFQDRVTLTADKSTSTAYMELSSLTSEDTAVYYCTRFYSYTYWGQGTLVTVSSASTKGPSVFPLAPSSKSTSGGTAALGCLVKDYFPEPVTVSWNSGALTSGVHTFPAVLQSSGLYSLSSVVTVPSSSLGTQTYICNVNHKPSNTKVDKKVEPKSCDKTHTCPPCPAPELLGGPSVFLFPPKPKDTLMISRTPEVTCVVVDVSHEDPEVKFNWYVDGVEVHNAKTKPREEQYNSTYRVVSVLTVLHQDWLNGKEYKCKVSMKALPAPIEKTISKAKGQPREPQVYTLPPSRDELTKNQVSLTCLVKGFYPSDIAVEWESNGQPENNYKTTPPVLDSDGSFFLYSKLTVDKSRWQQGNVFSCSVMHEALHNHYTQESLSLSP
light: DIVMTQSPLSLPVTPGEPASISCQASESLVHSNRNTYLHWYLQKPGQSPQLLIYKVSNRFSGVPDRFSGSGSGTDFTLKISRVEAEDVGVYYCSQNTHVPPTFGQGTKVEIERTVAAPSVFIFPPSDEQLKSGTASVVCLLNNFYPREAKVQWKVDNALQSGNSQESVTEQDSKDSTYSLSSTLTLSKADYEKHKVYACEVTHQGLSSPVTKSFNRGEC
notes: also called Ho Ab N325_06M
- Ho/Con_2b: 159 % of HoCon Ab GpH7-B3/GpL16-k0

B3: GpH7-B3 variant P238_03V/GpL16-k0 (antibody, human IgG1, kappa)
heavy: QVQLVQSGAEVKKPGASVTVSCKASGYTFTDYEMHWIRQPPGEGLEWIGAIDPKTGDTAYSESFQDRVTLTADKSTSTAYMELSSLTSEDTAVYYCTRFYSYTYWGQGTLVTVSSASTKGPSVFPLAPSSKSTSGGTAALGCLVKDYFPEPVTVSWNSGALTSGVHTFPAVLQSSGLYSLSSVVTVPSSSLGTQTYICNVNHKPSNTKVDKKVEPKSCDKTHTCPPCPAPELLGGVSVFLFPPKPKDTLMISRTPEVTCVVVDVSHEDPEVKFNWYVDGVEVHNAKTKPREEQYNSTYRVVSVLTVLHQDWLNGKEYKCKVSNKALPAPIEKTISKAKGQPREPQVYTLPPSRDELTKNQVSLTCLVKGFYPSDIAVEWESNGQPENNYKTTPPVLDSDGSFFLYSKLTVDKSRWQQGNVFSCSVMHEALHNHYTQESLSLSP
light: DIVMTQSPLSLPVTPGEPASISCQASESLVHSNRNTYLHWYLQKPGQSPQLLIYKVSNRFSGVPDRFSGSGSGTDFTLKISRVEAEDVGVYYCSQNTHVPPTFGQGTKVEIERTVAAPSVFIFPPSDEQLKSGTASVVCLLNNFYPREAKVQWKVDNALQSGNSQESVTEQDSKDSTYSLSSTLTLSKADYEKHKVYACEVTHQGLSSPVTKSFNRGEC
notes: also called Ho Ab P238_03V
- Ho/Con_2b: 96.6 % of HoCon Ab GpH7-B3/GpL16-k0

B4: GpH7-B3 variant N325_13S/GpL16-k0 (antibody, human IgG1, kappa)
heavy: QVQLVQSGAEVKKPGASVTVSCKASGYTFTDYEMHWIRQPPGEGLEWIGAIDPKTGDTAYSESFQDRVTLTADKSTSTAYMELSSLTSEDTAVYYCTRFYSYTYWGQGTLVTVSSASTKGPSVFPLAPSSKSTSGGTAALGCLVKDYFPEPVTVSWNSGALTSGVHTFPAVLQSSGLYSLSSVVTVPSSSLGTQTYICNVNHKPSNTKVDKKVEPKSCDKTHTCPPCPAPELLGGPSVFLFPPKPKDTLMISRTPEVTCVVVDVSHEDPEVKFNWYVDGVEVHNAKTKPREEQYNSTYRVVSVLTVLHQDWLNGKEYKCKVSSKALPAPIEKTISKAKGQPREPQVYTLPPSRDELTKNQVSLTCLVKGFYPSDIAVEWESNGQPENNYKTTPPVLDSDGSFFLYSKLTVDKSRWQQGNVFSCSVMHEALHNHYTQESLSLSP
light: DIVMTQSPLSLPVTPGEPASISCQASESLVHSNRNTYLHWYLQKPGQSPQLLIYKVSNRFSGVPDRFSGSGSGTDFTLKISRVEAEDVGVYYCSQNTHVPPTFGQGTKVEIERTVAAPSVFIFPPSDEQLKSGTASVVCLLNNFYPREAKVQWKVDNALQSGNSQESVTEQDSKDSTYSLSSTLTLSKADYEKHKVYACEVTHQGLSSPVTKSFNRGEC
notes: also called Ho Ab N325_13S
- Ho/Con_2b: 159 % of HoCon Ab GpH7-B3/GpL16-k0

B5: GpH7-B3 variant N325_20W/GpL16-k0 (antibody, human IgG1, kappa)
heavy: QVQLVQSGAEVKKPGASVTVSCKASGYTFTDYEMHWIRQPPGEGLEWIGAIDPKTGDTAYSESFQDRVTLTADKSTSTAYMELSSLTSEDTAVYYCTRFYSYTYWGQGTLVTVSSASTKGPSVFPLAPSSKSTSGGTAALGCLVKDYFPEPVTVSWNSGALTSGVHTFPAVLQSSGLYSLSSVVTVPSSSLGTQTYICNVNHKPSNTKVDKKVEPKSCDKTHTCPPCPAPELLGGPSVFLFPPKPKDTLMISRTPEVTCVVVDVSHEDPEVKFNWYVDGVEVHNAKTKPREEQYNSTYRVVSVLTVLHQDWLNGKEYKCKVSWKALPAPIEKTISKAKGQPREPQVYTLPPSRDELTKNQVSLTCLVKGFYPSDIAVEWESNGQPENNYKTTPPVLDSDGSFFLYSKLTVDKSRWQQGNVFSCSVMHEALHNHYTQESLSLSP
light: DIVMTQSPLSLPVTPGEPASISCQASESLVHSNRNTYLHWYLQKPGQSPQLLIYKVSNRFSGVPDRFSGSGSGTDFTLKISRVEAEDVGVYYCSQNTHVPPTFGQGTKVEIERTVAAPSVFIFPPSDEQLKSGTASVVCLLNNFYPREAKVQWKVDNALQSGNSQESVTEQDSKDSTYSLSSTLTLSKADYEKHKVYACEVTHQGLSSPVTKSFNRGEC
notes: also called Ho Ab N325_20W
- Ho/Con_2b: 44 % of HoCon Ab GpH7-B3/GpL16-k0

B6: GpH7-B3 variant N325_07I/GpL16-k0 (antibody, human IgG1, kappa)
heavy: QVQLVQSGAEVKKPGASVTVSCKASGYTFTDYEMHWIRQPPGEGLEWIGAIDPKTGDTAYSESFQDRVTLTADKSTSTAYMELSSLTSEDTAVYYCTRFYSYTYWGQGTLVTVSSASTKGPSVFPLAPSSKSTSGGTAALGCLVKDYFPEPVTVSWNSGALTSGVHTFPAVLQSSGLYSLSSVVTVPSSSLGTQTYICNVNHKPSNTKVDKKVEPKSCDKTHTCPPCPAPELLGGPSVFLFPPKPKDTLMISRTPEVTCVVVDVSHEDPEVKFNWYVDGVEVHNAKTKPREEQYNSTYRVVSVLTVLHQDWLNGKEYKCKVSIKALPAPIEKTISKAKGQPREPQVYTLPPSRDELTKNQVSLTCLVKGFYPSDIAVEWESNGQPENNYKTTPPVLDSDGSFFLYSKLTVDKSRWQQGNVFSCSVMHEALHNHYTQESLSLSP
light: DIVMTQSPLSLPVTPGEPASISCQASESLVHSNRNTYLHWYLQKPGQSPQLLIYKVSNRFSGVPDRFSGSGSGTDFTLKISRVEAEDVGVYYCSQNTHVPPTFGQGTKVEIERTVAAPSVFIFPPSDEQLKSGTASVVCLLNNFYPREAKVQWKVDNALQSGNSQESVTEQDSKDSTYSLSSTLTLSKADYEKHKVYACEVTHQGLSSPVTKSFNRGEC
notes: also called Ho Ab N325_07I
- Ho/Con_2b: 88.2 % of HoCon Ab GpH7-B3/GpL16-k0

B7: GpH7-B3 variant N325_09D/GpL16-k0 (antibody, human IgG1, kappa)
heavy: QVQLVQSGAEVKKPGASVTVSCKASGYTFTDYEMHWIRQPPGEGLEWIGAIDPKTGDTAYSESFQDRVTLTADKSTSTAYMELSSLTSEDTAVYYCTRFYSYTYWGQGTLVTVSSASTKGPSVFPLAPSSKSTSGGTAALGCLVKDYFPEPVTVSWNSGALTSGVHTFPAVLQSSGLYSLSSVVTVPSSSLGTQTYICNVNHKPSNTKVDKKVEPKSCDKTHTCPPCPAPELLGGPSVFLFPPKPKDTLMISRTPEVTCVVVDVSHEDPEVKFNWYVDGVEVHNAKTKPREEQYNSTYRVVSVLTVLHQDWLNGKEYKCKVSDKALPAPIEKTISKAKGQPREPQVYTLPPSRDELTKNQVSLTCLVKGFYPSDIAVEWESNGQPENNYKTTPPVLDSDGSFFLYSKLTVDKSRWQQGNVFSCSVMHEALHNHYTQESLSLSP
light: DIVMTQSPLSLPVTPGEPASISCQASESLVHSNRNTYLHWYLQKPGQSPQLLIYKVSNRFSGVPDRFSGSGSGTDFTLKISRVEAEDVGVYYCSQNTHVPPTFGQGTKVEIERTVAAPSVFIFPPSDEQLKSGTASVVCLLNNFYPREAKVQWKVDNALQSGNSQESVTEQDSKDSTYSLSSTLTLSKADYEKHKVYACEVTHQGLSSPVTKSFNRGEC
notes: also called Ho Ab N325_09D
- Ho/Con_2b: 77 % of HoCon Ab GpH7-B3/GpL16-k0

B8: GpH7-B3 variant N325_04F/GpL16-k0 (antibody, human IgG1, kappa)
heavy: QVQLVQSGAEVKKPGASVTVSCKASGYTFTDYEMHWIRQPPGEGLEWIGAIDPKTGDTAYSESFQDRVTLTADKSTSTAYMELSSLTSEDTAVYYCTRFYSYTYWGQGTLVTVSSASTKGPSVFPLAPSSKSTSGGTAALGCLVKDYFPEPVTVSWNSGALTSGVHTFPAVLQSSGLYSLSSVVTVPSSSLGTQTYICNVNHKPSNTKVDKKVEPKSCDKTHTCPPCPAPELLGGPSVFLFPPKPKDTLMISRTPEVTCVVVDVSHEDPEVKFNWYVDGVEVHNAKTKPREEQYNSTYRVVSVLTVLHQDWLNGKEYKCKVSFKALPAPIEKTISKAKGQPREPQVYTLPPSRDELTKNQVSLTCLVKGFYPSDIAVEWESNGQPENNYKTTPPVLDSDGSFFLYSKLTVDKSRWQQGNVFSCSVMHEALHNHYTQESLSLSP
light: DIVMTQSPLSLPVTPGEPASISCQASESLVHSNRNTYLHWYLQKPGQSPQLLIYKVSNRFSGVPDRFSGSGSGTDFTLKISRVEAEDVGVYYCSQNTHVPPTFGQGTKVEIERTVAAPSVFIFPPSDEQLKSGTASVVCLLNNFYPREAKVQWKVDNALQSGNSQESVTEQDSKDSTYSLSSTLTLSKADYEKHKVYACEVTHQGLSSPVTKSFNRGEC
notes: also called Ho Ab N325_04F
- Ho/Con_2b: 65.7 % of HoCon Ab GpH7-B3/GpL16-k0

B9: GpH7-B3 variant N325_08L/GpL16-k0 (antibody, human IgG1, kappa)
heavy: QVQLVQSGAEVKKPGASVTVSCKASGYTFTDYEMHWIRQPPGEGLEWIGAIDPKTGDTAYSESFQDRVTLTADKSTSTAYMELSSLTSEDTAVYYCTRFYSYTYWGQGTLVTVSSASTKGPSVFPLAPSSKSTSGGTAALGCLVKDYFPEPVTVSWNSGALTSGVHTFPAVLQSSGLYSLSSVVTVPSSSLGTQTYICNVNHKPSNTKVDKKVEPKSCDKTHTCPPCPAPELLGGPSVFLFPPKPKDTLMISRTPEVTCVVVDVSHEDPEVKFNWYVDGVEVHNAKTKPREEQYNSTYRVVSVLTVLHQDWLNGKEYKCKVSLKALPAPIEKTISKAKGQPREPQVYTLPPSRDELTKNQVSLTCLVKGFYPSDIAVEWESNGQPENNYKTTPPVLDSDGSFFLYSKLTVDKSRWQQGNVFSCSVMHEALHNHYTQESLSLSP
light: DIVMTQSPLSLPVTPGEPASISCQASESLVHSNRNTYLHWYLQKPGQSPQLLIYKVSNRFSGVPDRFSGSGSGTDFTLKISRVEAEDVGVYYCSQNTHVPPTFGQGTKVEIERTVAAPSVFIFPPSDEQLKSGTASVVCLLNNFYPREAKVQWKVDNALQSGNSQESVTEQDSKDSTYSLSSTLTLSKADYEKHKVYACEVTHQGLSSPVTKSFNRGEC
notes: also called Ho Ab N325_08L
- Ho/Con_2b: 106 % of HoCon Ab GpH7-B3/GpL16-k0
